Values quoted from earlier work in paper PMC3777542.

Columns and labels:
[1] = molecular target: Hck SH3 (Homo sapiens) (UniProt P08631)
[2] = molecular target: Hck (Homo sapiens) (UniProt P08631)
[3] = molecular target: CD4 cytoplasmic tail (Homo sapiens) (UniProt P01730)
[4] = molecular target: AP-2 hemicomplex (Homo sapiens) (UniProt O95782); experiment: SPR
Sequence of UniProt O95782 (O95782 whole entry, chain 1 of 2): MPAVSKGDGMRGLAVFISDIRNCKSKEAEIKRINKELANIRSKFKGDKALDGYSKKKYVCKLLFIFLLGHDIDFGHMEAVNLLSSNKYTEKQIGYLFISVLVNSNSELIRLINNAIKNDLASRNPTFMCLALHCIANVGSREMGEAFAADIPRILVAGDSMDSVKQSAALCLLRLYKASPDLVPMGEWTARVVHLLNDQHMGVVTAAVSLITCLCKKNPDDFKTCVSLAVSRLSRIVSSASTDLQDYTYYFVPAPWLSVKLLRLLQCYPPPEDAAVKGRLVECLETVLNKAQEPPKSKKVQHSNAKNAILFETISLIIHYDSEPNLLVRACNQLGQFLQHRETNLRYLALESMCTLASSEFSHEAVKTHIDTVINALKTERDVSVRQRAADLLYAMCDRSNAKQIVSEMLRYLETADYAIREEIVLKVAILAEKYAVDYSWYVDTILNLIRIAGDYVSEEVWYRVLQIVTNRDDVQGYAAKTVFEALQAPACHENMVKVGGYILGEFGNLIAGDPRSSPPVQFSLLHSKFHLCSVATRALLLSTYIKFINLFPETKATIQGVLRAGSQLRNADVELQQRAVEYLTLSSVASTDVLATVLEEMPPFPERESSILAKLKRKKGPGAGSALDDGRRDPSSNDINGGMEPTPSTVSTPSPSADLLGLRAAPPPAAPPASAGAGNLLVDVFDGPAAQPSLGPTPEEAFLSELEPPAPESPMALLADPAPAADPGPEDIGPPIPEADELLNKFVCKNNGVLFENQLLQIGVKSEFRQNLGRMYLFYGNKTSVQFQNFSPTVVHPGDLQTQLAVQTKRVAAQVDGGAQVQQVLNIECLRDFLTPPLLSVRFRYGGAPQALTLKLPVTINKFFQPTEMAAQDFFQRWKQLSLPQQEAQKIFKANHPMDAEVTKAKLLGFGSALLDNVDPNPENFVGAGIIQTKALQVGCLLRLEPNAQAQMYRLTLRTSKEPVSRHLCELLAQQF
Sequence of UniProt O95782 (B2R4Z4 whole entry, chain 2 of 2, further chain): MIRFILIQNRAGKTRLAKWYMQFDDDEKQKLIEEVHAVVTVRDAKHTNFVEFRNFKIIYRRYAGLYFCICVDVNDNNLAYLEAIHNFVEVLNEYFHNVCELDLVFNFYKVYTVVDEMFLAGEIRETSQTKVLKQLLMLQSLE

## Nef (from UniProt P04324)
[1]
  Kd: 260 nM
[2]
  Kd: 200 nM
[3]
  Kd: 1000 nM
[4]
  Kd: 6000 nM
